This data set is described as follows: soluble on expression in E. coli; label from the status in PepcDB or PDB records.
For the sequence “MCFSFIMPPAMADILDIWAVDSQIASDGSIPVDFLLPTGIYIQLEVPREATISYIKQMLWKQVHNYPMFNLLMDIDSYMFACVNQTAVYEELEDETRRLCDVRPFLPVLKLVTRSCDPGEKLDSKIGVLIGKGLHEFDSLKDPEVNEFRRKMRKFSEEKILSLVGLSWMDWLKQTYPPEHEPSIPENLEDKLYGGKLIVAVHFENCQDVFSFQVSPNMNPIKVNELAIQKRLTIHGKEDEVSPYDYVLQVSGRVEYVFGDHPLIQFQYIRNCVMNRALPHFILVECCKIKKMYEQEMIAIEAAINRNSSNLPLPLPPKKTRIISHVWENNNPFQIVLVKGNKLNTEETVKVHVRAGLFHGTELLCKTIVSSEVSGKNDHIWNEPLEFDINICDLPRMARLCFAVYAVLDKVKTKKSTKTINPSKYQTIRKAGKVHYPVAWVNTMVFDFKGQLRTGDIILHSWSSFPDELEEMLNPMGTVQTNPYTENATALHVKFPENKKQPYYYPPFDKIIEKAAEIASSDSANVSSRGGKKFLPVLKEILDRDPLSQLCENEMDLIWTLRQDCREIFPQSLPKLLLSIKWNKLEDVAQLQALLQIWPKLPPREALELLDFNYPDQYVREYAVGCLRQMSDEELSQYLLQLVQVLKYEPFLDCALSRFLLERALGNRRIGQFLFWHLRSEVHIPAVSVQFGVILEAYCRGSVGHMKVLSKQVEALNKLKTLNSLIKLNAVKLNRAKGKEAMHTCLKQSAYREALSDLQSPLNPCVILSELYVEKCKYMDSKMKPLWLVYNNKVFGEDSVGVIFKNGDDLRQDMLTLQMLRLMDLLWKEAGLDLRMLPYGCLATGDRSGLIEVVSTSETIADIQLNSSNVAAAAAFNKDALLNWLKEYNSGDDLDRAIEEFTLSCAGYCVASYVLGIGDRHSDNIMVKKTGQLFHIDFGHILGNFKSKFGIKRERVPFILTYDFIHVIQQGKTGNTEKFGRFRQCCEDAYLILRRHGNLFITLFALMLTAGLPELTSVKDIQYLKDSLALGKSEEEALKQFKQKFDEALRESWTTKVNWMAHTVRKDYRS”, the “soluble on expression in E. coli” value is on record as “soluble”. On to “MCGRFTLTVDLLALQDRFHFRYQGSLTPRFNIAPGQDVLTIVAEGGERVGKMMRWGLVPFWAKDARIGAKMINARAETVDEKASFRHAFKRRRCLILADGFFEWKKEGTKKVPYRFTLKTGEPFAFAGLWERWEGASDPIETCTIMTTKANELIAPIHDRMPVMLPYERHDDWLDPRLDDSEYLKSLLSPYPSGEMRMYEVAPLVNSPKNDVIACIEPVDSRSMEGT”, for which the “soluble on expression in E. coli” value is “not soluble”. The value for “MCINIRLEKTRDIQSIHAITIAAFLDAPHTDHTEQFIVDALRDSGALSVSLIAEDSSKIIGHVALSPVTISDGSKDWYGLGPISVVPTDQNKGIGSKLMHAALRELNNLNANGCVLLGDPNYYRRFGFEPIGGLVLPDVPPEYFQATLLKGSYPTGVVTYHESFSAQS” was “not soluble”; that for MCMPLLPGEQQHLLIDRLEKRVPTAAGEGATTKL was “not soluble”. With “MCMTRQPAVAGQFYTDEPKRLRGDLQRMIPAETMKQRVKGIVAPHAGYVYSGHVAGAVYGAIEIPSTVVILGPNHHGFGAAAALYPEGEWLTPLGSVPIDVRLSQLVQKHVPLVEPEMSAHRFEHSLEVQVPFLQYRADVSIVPICLGFGDYERCRLLGEGIARAIREFGEDVLIVASSDMTHYESADAARAKDEQAIAEVLALNPEGLVQICRRKNITMCGVIPATVMLVTAKALGASKAELISYATSGDVTGDNRQVVAYAAMAVYLEHHHHHH”, the “soluble on expression in E. coli” value was “not soluble”.

“MCMYGGIYVNNGYSPMSSNQQNVSVEHDIIMRGRRVIDITGVKQVESFDSEEFLLETVMGFLTIRGQNLQMKNLDVEKGVVSIKGKVHEMLYIDENQGEKTKGFFSKLFKLEHHHHHH”: the “soluble on expression in E. coli” value is on record as “soluble”.

With “MCSSDSLQLHNVFVYGSFQDPDVINVMLDRTPEIVSATLPGFQRFRLKGRLYPCIVPSEKGEVHGKVLMGVTSDELENLDAVEGNEYERVTVGIVREDNSEKMAVKTYMWINKADPDMFGEWNFEEWKRLHKKKFIETFKKIMECKKKPQGQGNDDISHVLREDQ”, the “soluble on expression in E. coli” value was “soluble”. Then “MDAAIKKIPYGMTDFERIILENYYYVDKTQYIAKVEKVTSFFFFVRPRRFGKSLFLNMLGLYYDINQKDKFEKIFGNLYIGKHPTPDRNKYLVLTLNFSSVAANMDRLEETFNTYCKIVMDGFAERNAHLLGKEAVEKLHELKTGDALLGSLCQSAQNKGQKIYLILDEYDNFANNILVDYGNKRYRSITHGSGFFRSFLKVVKDYSSSVIERIFLTGVSPVTMDDLTSGFNIADNYSSSPIFNNMMGFNEQEVRTLIDYYKSYRELPHTTDELITIMKPWYDNYCFAMKALKEPSMYNSDMVLYFMNHYMLNEDIPDNMLDANIRTDYNKLRHLIHVDKTFGENASVVQEIVEKGSTTGIIANSFPAEDIIKPENFKSLLYYYGMLTISGMEMGEPILSVPNWAVREQLYGYMADIYKDSADLYLETDKLVDRMKRMAYKGEWENCFTYIADRLNAQSSVRDFIEGEAYVKTFILAYLGLTHYYIARPEYESNKGYADIFLQPRLLQLPDMVYSYCIEVKYAKRDASDTEIEKLLSNAKIQLKQYAASEWIHQDKGTTELKSIALVFQGWKLVRVEEV”, with “not soluble”; and “MDAGYFRGANSEQDGRFSDKEKKLLKTMKFEPQLEQKIDLNRCNMDVIKPWITARVNDILGMEDDVVVEYILSQIDDKNLNPKLLQINVTGFLNARRAREFVGDLWNLLIEANASEDGIPASLVNQKMAEMKTNDRDEKGDDREDNDWTNRYKTLSNGRYTGPAREKAVRDDRIPARALSPRKTPPRRNASPGGDGGGGSPAARRGGSAGNRRRSPPRRGSPRRGSPRRDTRRSPPRRRGSPPARGGDRRDRREDRRPVRDEKEREEESRRREIERKKRHEEAELRQKAIASVAARAKSGSPRRRRSPSASKSPPPARRRRSPSQSKSPAPKRAKSRSKSPPAPARRRRSPSASKSPPPAPKRAKSRSKSPPARRRRSPSASKSPPAPRRRRSPSKSRSPAPKREIPPARRRRSPSASKSPPAPKRAKSRSKSPPAPRRRRSPSQSKSPAPRRRRSPSKSPQAPRRRRSPSGSKSRSPRRRRSPAAAPRRRQSPQRRRSPRRRRSPSSSSRSRSPPPPPRRPRQDSEQQAPVAVKSPEMKKRRPNDTDSDVSVDSEAEEERRRKKAKKEKKAAKKHKKEKKSKKHRKRRSPSASESGSESD”, with “soluble”; and “MDAKVYVGGLPSDATSQELEEIFDRFGRIRKVWVARRPPGFAFVEYDDVRDAEDAVRALDGSRICGVRARVELSTGQRRGGGGRGGGFGGRGGGGRDRSPYRGDRGRSRSRSRDRGRDRSRDRSRDRSRDRSRDRSRERSRERERTRSRSRSPQERDRSHSKSRSRSRSRSRSRSASPH”, with “soluble”. Then “MDALEGESFALSFSSASDAEFDAVVGYLEDIIMDDEFQLLQRNFMDKYYLEFEDTEENKLIYTPIFNEYISLVEKYIEEQLLQRIPEFNMAAFTTTLQHHKDEVAGDIFDMLLTFTDFLAFKEMFLDYRAEKEGRGLDLSSGLVVTSLCKSSSLPASQNNLRHGHHHHHH”, with “not soluble”; and “MDASIEKRPRTRLSPQKRKLQLMEIALEVFAKRGIGRGGHADIAEIAQVSVATVFNYFPTREDLVDDVLNFVVRQYSNFLTDHIDLDLDVKTNLQTLCKEMVKLAMTDCHWLKVWFEWSASTRDEVWPLFVSTNRTNQLLIRNMFMKAMERGELCEKHDVDNMASLFHGIFYSIFLQVNRLGEQEAVYKLADSYLNMLCIYKN”, with “soluble”. In the case of “MDASYSSSRPKKLNYTSYTSLKSVLKFLSVKKREQIHIHIPELRSVNALLPYAHEEVILDKFEIMIQNRSYLFKKLAEKAPKPEGVARRRPEYEYAEYNRLLVMDLGPPSLFDMNDLHHLWRPMGNQGPDRLSFGDLDSLEKRRLRFRRENRLQDSSEHGRTGNCEITISEEDGTAITVTKEIPVDIAYEKIFDAFFSNGSRIKLLKVQSFPDFLMRKDLLTLKVREIDCSSTASIDILELAPFLDHSSLKKLTLNVTNTNVDLLMLPLVQNCPVLRIVEAGTFLSRMLKTTLLSALQNQKLEIFPDIVIIESFPQLVQSWATSSRPIGSLVQVGIREDYKEVLDILDFLKESHGAHPAIIKKLENTDFSNGLSMLIDGDLELAIYGGGKISEEGLTRPQPCKWSLCMEVMKRGDTIPR”, the “soluble on expression in E. coli” value was “not soluble”. Then “MDDAELRAVRTLISLTTRYFAVFKNAPVIMAVIDDNGKVVDANNAAAELIGEKPSGKHLRELLPAELCEKVLSTLEKALEEEKKANLRAKVSGKLLRVQLTPISADGRKLCLLTGFSVEDELSKAAREILRLAARAGDAETVIKGMAKKFGELELFSQVKVELDGLREVVREKDGEFVYEFPLRMHRKKGRVTLESRKELSSEEIDMLAETFEDVSILISTLELESKLSAEVRRTVELINELREQLKAVTLSLEILENDGLKSIVKERLGKMLQVAERLAGE”, with “not soluble”.

Regarding “MDDASPTLASVIIPAFNAEAVLEQAVDSVRASIAHCAAHLAAAPAGAFEIILVDDASTDATLALARRLAAEDPRITVIARRRNGGAGPARNAGARAAKGEILFYLDADDGFLPPHVLACLQELLRHPEAGLVKTGIAVDFPLTEEWRQALIVSVVFNTALWKRCHEAIGGFMEDPELCVLRCEDVFYCDLLMRAFPARGIEAQTVRHTLRPGGAFDGQRAKFSAPPGEGPESLTPAQSAVLPLIRARHAERLARLGLEDAEALEHHHHHH”, the “soluble on expression in E. coli” value is “not soluble”. The value for “MDDIRKIERLAAASWPAYFQKSIGKWLLRANFGVTKRANSVWTSADMPEGDFQLEAELFYQSLGLPVCFHISNASPKGLDDALADSRYEKVDECFQMTALCRSIMSRTNDNSRFTYKWEQEPSSVWIDEFIQLEGFSPERHKGYKHIFERMPPCKTFFKMYDKESLTALGTVSVIDGYGGLSNIVVAEEHRGKGAGTQVIRVLTEWAKNNGAERMFLQVMKENLAAVSLYGKIGFSPISEHHYRIKRLEHHHHHH” was “not soluble”; that for “MDDYMVLRMIGEGSFGRALLVQHESSNQMFAMKEIRLPKSFSNTQNSRKEAVLLAKMKHPNIVAFKESFEAEGHLYIVMEYCDGGDLMQKIKQQKGKLFPEDMILNWFTQMCLGVNHIHKKRVLHRDIKSKNIFLTQNGKVKLGDFGSARLLSNPMAFACTYVGTPYYVPPEIWENLPYNNKSDIWSLGCILYELCTLKHPFQANSWKNLILKVCQGCISPLPSHYSYELQFLVKQMFKRNPSHRPSATTLLSRGIVARLVQKCLPPEIIMEYGEEVLEEIKNSKHNTPRKKTNPSRIRIALGNEASTVQEEEQDRKGSHTDLESINENLVESALRRVNREEKGNKSVHLRKASSPNLHRRQWEKNVPNTALTALENASILTSSLTAEDDRGGSVIKYSKNTTRKQWLKETPDTLLNILKNADLSLAFQTYTIYRPGSEGFLKGPLSEETEASDSVDGGHDSVILDPERLEPGLDEEDTDFEEEDDNPDWVSELKKRAGWQGLCDR” was “soluble”.

For the origin of these results see the DeepSol protein solubility set.
